Test results taken from patent EP4803094A2, “GLP-1/GIP DUAL, GLP-1/GCG DUAL AND GLP-1/GIP/GCG TRIPLE RECEPTOR AGONISTS” (Sun Pharmaceutical Industries Limited, priority 2023, dated 2024).
Marks after values point to notes of the source that are not given here.

What was measured:
Rats [1] = test: Oral Glucose Tolerance Test (OGTT) in rats, single injection (blood glucose AUC, body weight, food consumption); assay type: in vivo; settings: 30 nM/kg s.c., mean (n=4); for Body weight change (%): 24 hr
Rats [2] = test: as above; assay type: in vivo; settings: for Food Consumption (g) / Body weight change (%): 30 nM/kg s.c.; for Food Consumption (g): 0-12 hr; for Food Consumption (g) / Body weight change (%) / Blood Glucose AUC(0-120min) Mean: mean (n=4); for Blood Glucose AUC(0-120min) Mean: OGTT 2 g/kg glucose orally, 24 hr post subcutaneous injection of 30 nM/kg; for % Change in Blood glucose AUC(0-120min) vs placebo control: OGTT 24 hr post subcutaneous injection of 30 nM/kg
Description: Animals were divided into 6 groups (n=4/group): a placebo control group, Compound 17, (30 nM/kg), Compound 18 (30 nM/kg), Compound 19 (30 nM/kg), Compound 20 (30 nM/kg), and Retatrutide (30 nM/kg). Animals were fasted for 12 hours before initiation of OGTT. After 24 hours of subcutaneous injection of tests or Retatrutide, blood glucose was measured with blood glucometer (time 0 measurement). All the animals were given 2 g/kg of glucose solution orally. Blood glucose was measured at 10, 20, 40, 60, 90, and 120 min following glucose challenge. Body weight and food consumption were recorded at 12 hr, 48 hr and 72 hr.

GCGR = GCGR (UniProt P47871 26-477, limits assumed); test: cell-based or functional assay
Sequence of GCGR (P47871 26-477 limits assumed): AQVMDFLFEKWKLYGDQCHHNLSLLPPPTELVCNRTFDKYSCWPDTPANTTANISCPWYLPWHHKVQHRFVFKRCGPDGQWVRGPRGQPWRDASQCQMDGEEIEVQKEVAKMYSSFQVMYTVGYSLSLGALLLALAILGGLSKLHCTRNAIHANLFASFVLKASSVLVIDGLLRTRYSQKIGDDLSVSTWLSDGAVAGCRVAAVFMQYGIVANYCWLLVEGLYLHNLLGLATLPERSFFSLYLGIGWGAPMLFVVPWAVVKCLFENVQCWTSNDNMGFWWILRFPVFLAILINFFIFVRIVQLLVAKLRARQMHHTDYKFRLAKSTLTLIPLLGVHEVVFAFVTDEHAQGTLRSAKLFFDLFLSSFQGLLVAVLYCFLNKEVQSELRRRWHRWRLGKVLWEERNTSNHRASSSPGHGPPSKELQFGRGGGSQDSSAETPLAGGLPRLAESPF

GIPR = molecular target: T1, GIPR (UniProt P48546 22-466, limits assumed); test: cell-based or functional assay
T1 sequence (looked up): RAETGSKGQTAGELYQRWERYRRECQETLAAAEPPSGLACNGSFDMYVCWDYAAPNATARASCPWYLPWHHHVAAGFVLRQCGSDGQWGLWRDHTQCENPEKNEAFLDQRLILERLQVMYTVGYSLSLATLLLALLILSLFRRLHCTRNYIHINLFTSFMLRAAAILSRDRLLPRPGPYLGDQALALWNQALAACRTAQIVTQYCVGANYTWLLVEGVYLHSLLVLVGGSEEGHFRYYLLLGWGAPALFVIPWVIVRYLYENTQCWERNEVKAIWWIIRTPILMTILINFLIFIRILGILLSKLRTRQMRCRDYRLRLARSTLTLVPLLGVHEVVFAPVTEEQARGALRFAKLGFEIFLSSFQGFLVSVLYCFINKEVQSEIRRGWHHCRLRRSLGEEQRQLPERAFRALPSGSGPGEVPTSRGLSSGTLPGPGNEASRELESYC

GLP-1R = GLP-1R (UniProt P43220 24-463, limits assumed); test: cell-based or functional assay

CCC[C@H](NC(=O)[C@@H](NC(=O)[C@H](CO)NC(=O)[C@H](Cc1ccc(O)cc1)NC(=O)[C@H](CC(=O)O)NC(=O)[C@H](CO)NC(=O)[C@@H](NC(=O)[C@H](Cc1ccccc1)NC(=O)[C@@H](NC(=O)CNC(=O)[C@H](CCC(N)=O)NC(=O)C(C)(C)NC(=O)[C@@H](N)Cc1ccc(O)cc1)[C@@H](C)O)[C@@H](C)O)[C@@H](C)CC)C(=O)N[C@@H](CC(C)C)C(=O)N[C@@H](CC(=O)O)C(=O)N[C@@H](CCCCN)C(=O)N[C@@H](CCCCNC(=O)COCCOCCNC(=O)COCCOCCNC(=O)CC[C@H](NC(=O)CCCCCCCCCCCCCCCCCCC(=O)O)C(=O)O)C(=O)N[C@@H](C)C(=O)N[C@@H](CCC(N)=O)C(=O)NC(C)(C)C(=O)N[C@@H](C)C(=O)N[C@@H](Cc1ccccc1)C(=O)N[C@H](C(=O)N[C@@H](CCC(=O)O)C(=O)N[C@@H](Cc1ccc(O)cc1)C(=O)N[C@@H](CC(C)C)C(=O)N[C@@H](CC(C)C)C(=O)N[C@@H](CCC(=O)O)C(=O)NCC(=O)NCC(=O)N1CCC[C@H]1C(=O)N[C@@H](CO)C(=O)N[C@@H](CO)C(=O)NCC(=O)N[C@@H](C)C(=O)N1CCC[C@H]1C(=O)N1CCC[C@H]1C(=O)N1CCC[C@H]1C(=O)N[C@@H](CO)C(N)=O)[C@@H](C)CC [Compound 18]
Food Consumption (g) (Rats [1]; 24-48 hr): 5.8*** g | Food Consumption (g) (Rats [1]; 24-72 hr): 16.8*** g | Body weight change (%) (Rats [1]): -6.5*** % | Food Consumption (g) (Rats [2]): 3.0*** g | Body weight change (%) (Rats [2]; 48 hr): -4.6*** % | Body weight change (%) (Rats [2]; 72 hr): -2.6*** % | Blood Glucose AUC(0-120min) Mean (Rats [2]): 4176.3*** | % Change in Blood glucose AUC(0-120min) vs placebo control (Rats [2]): -56.82%

CCC[C@H](NC(=O)[C@@H](NC(=O)[C@H](CO)NC(=O)[C@H](Cc1ccc(O)cc1)NC(=O)[C@H](CC(=O)O)NC(=O)[C@H](CO)NC(=O)[C@@H](NC(=O)[C@H](Cc1ccccc1)NC(=O)[C@@H](NC(=O)CNC(=O)[C@H](CCC(N)=O)NC(=O)C(C)(C)NC(=O)[C@@H](N)Cc1ccc(O)cc1)[C@@H](C)O)[C@@H](C)O)[C@@H](C)CC)C(=O)N[C@@H](CC(C)C)C(=O)N[C@@H](CC(=O)O)C(=O)N[C@@H](CCCCN)C(=O)N[C@@H](CCCCNC(=O)COCCOCCNC(=O)C(C)(C)NC(=O)CC[C@H](NC(=O)CCCCCCCCCCCCCCCCCCC(=O)O)C(=O)O)C(=O)N[C@@H](C)C(=O)N[C@@H](CCC(N)=O)C(=O)NC(C)(C)C(=O)N[C@@H](C)C(=O)N[C@@H](Cc1ccccc1)C(=O)N[C@H](C(=O)N[C@@H](CCC(=O)O)C(=O)N[C@@H](Cc1ccc(O)cc1)C(=O)N[C@@H](CC(C)C)C(=O)N[C@@H](CC(C)C)C(=O)N[C@@H](CCC(=O)O)C(=O)NCC(=O)NCC(=O)N1CCC[C@H]1C(=O)N[C@@H](CO)C(=O)N[C@@H](CO)C(=O)NCC(=O)N[C@@H](C)C(=O)N1CCC[C@H]1C(=O)N1CCC[C@H]1C(=O)N1CCC[C@H]1C(=O)N[C@@H](CO)C(N)=O)[C@@H](C)CC [Compound 17]
Food Consumption (g) (Rats [1]; 24-48 hr): 15.8*** g | Food Consumption (g) (Rats [1]; 24-72 hr): 31.3*** g | Body weight change (%) (Rats [1]): -6.8*** % | Food Consumption (g) (Rats [2]): 1.4*** g | Body weight change (%) (Rats [2]; 48 hr): -5.0*** % | Body weight change (%) (Rats [2]; 72 hr): -3.3*** % | Blood Glucose AUC(0-120min) Mean (Rats [2]): 4771.3*** | % Change in Blood glucose AUC(0-120min) vs placebo control (Rats [2]): -50.67%

B1: Compound 12 (peptide)
peptide: YXQGTFTSDYSIXLDKXAQXAFIEYLLEGGPSSGAPPPS
modifications: Aib at 2; αMethyl-Leu at 13; Lys 17 ε-amino acylated with Moiety A; Aib at 20; C-terminal amide (Rink amide resin)
EC50 value, cellular cAMP assay (Hit Hunter cAMP) (GCGR): 6.99 nM | EC50 value, cellular cAMP assay (Hit Hunter cAMP) (GIPR): 12 nM | EC50 value, cellular cAMP assay (Hit Hunter cAMP) (GLP-1R): 12 nM

B2: Compound 17 (peptide)
peptide: B1 peptide
modifications: Aib at 2; norvaline at 13; Lys 17 ε-amino acylated with Moiety B; Aib at 20; C-terminal amide
EC50 value, cellular cAMP assay (Hit Hunter cAMP) (GCGR): 0.0133 nM | EC50 value, cellular cAMP assay (Hit Hunter cAMP) (GIPR): 0.0115 nM | EC50 value, cellular cAMP assay (Hit Hunter cAMP) (GLP-1R): 0.0087 nM

B3: Compound 18 (peptide)
peptide: B1 peptide
modifications: not fully specified; Aib at 2; norvaline at 13; Lys 17 ε-amino acylated with Moiety G; Aib at 20; C-terminal amide
EC50 value, cellular cAMP assay (Hit Hunter cAMP) (GCGR): 0.193 nM | EC50 value, cellular cAMP assay (Hit Hunter cAMP) (GIPR): 0.0227 nM | EC50 value, cellular cAMP assay (Hit Hunter cAMP) (GLP-1R): 0.0173 nM

B4: Compound 19 (peptide)
peptide: B1 peptide
modifications: Aib at 2; αMethyl-Leu at 13; Lys 17 ε-amino acylated with Moiety C; Aib at 20; C-terminal amide
EC50 value, cellular cAMP assay (Hit Hunter cAMP) (GCGR): 0.109 nM | EC50 value, cellular cAMP assay (Hit Hunter cAMP) (GIPR): 0.0138 nM | EC50 value, cellular cAMP assay (Hit Hunter cAMP) (GLP-1R): 0.0116 nM

B5: Compound 20 (peptide)
peptide: B1 peptide
modifications: Aib at 2; αMethyl-Leu at 13; Lys 17 ε-amino acylated with Moiety D; Aib at 20; C-terminal amide
EC50 value, cellular cAMP assay (Hit Hunter cAMP) (GCGR): 0.14 nM | EC50 value, cellular cAMP assay (Hit Hunter cAMP) (GIPR): 0.0181 nM | EC50 value, cellular cAMP assay (Hit Hunter cAMP) (GLP-1R): 0.0144 nM

B6: Compound 13 (peptide)
peptide: B1 peptide
modifications: Aib at 2; αMethyl-Leu at 13; Lys 17 ε-amino acylated with Moiety B; Aib at 20; C-terminal amide
EC50 value, cellular cAMP assay (Hit Hunter cAMP) (GCGR): > 1.8 nM | EC50 value, cellular cAMP assay (Hit Hunter cAMP) (GIPR): > 1.5 nM | EC50 value, cellular cAMP assay (Hit Hunter cAMP) (GLP-1R): > 2.4 nM

B7: Compound 14 (peptide)
peptide: B1 peptide
modifications: Aib at 2; norleucine at 13; Lys 17 ε-amino acylated with Moiety B; Aib at 20; C-terminal amide
EC50 value, cellular cAMP assay (Hit Hunter cAMP) (GCGR): 20.9 nM | EC50 value, cellular cAMP assay (Hit Hunter cAMP) (GIPR): 24 nM | EC50 value, cellular cAMP assay (Hit Hunter cAMP) (GLP-1R): 8.54 nM
